Paper PMC11696373 (Nature Communications, 2025)

Molecular target: the molecule itself
Test: cryo-EM structure

B1: human XPR1 (natural protein)
chain: MKFAEHLSAHITPEWRKQYIQYEAFKDMLYSAQDQAPSVEVTDEDTVKRYFAKFEEKFFQTCEKELAKINTFYSEKLAEAQRRFATLQNELQSSLDAQKESTGVTTLRQRRKPVFHLSHEERVQHRNIKDLKLAFSEFYLSLILLQNYQNLNFTGFRKILKKHDKILETSRGADWRVAHVEVAPFYTCKKINQLISETEAVVTNELEDGDRQKAMKRLRVPPLGAAQPAPAWTTFRVGLFCGIFIVLNITLVLAAVFKLETDRSIWPLIRIYRGGFLLIEFLFLLGINTYGWRQAGVNHVLIFELNPRSNLSHQHLFEIAGFLGILWCLSLLACFFAPISVIPTYVYPLALYGFMVFFLINPTKTFYYKSRFWLLKLLFRVFTAPFHKVGFADFWLADQLNSLSVILMDLEYMICFYSLELKWDESKGLLPNNSEESGICHKYTYGVRAIVQCIPAWLRFIQCLRRYRDTKRAFPHLVNAGKYSTTFFMVTFAALYSTHKERGHSDTMVFFYLWIVFYIISSCYTLIWDLKMDWGLFDKNAGENTFLREEIVYPQKAYYYCAIIEDVILRFAWTIQISITSTTLLPHSGDIIATVFAPLEVFRRFVWNFFRLENEHLNNCGEFRAVRDISVAPLNADDQTLLEQMMDQDDGVRNRQKNRSWKYNQSISLRRPRLASQSKARDTKVLIEDTDDEANT
In the case of B1, the “stoichiometry N” value is reported as 2.
